Experimental data as given in the supplement of paper PMC6755084.

B1: minF1; the commonest letter at each place (parent)
chain: GAGACCGCAACTGAAAAGTTGTTATCAGAAATGGATGGGTTGAATTTCTGCACGTAGAAGCAAAAGGC

Variants of: B1
Experiment: fraction ligated after 30 min (ligated reads / total reads); higher = more ligase activity
Details: with F1*subA RNA substrate (template-directed ligation), 42 °C
Method in brief: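 RNAs for minimized ligase ribozyme variants were transcribed with T7 from PCR-amplified oligo-pool templates and purified on gels. Ligated and unligated species were resolved on gels, converted to cDNA with barcoded primers, and read on a MiSeq with core bases filtered at quality ≥30. Fraction ligated per variant is the ratio of ligated reads to total reads.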

Compared with G28A A30G, G28A A30T is lower in fraction ligated: 0.816 for the first, 0.814 for the second.

Compared with G28A A30C, A27C A44G is lower in fraction ligated: 0.802 for the first, 0.38 for the second.

Compared with A27C A44C, A27C A44T is higher in fraction ligated: 0.244 for the first, 0.441 for the second.

First: A27T A43C
Second: A27T A43T
The fraction ligated of the first is lower: 0.336 for the first, 0.412 for the second.

Going from A27T A43G to A27T G28T, the fraction ligated rises from 0.281 to 0.833.

First: A27T G28A
Second: A27T G28C
The fraction ligated of the first is higher: 0.825 for the first, 0.765 for the second.

First: C26G G37C
Second: C26G G37T
The fraction ligated of the first is higher: 0.00497 for the first, 0.00384 for the second.

First: C26G G37A
Second: C26T G42T
The fraction ligated of the first is lower: 0.00254 for the first, 0.00392 for the second.

First: C26T G42C
Second: C26T G42A
The fraction ligated of the first is lower: 0.00245 for the first, 0.0165 for the second.

Going from A27G A30T to A27G A30G, the fraction ligated rises from 0.78 to 0.824.

Compared with A27G A30C, A27T G34C is lower in fraction ligated: 0.803 for the first, 0.00507 for the second.

Compared with A27T G34T, A27T G34A is higher in fraction ligated: 0.00294 for the first, 0.285 for the second.

Going from G28C G37T to G28C G37C, the fraction ligated falls from 0.0184 to 0.0045.

First: G28C G37A
Second: G28A G33C
The fraction ligated of the first is lower: 0.0114 for the first, 0.719 for the second.

First: G28A G33A
Second: G28A G33T
The fraction ligated of the first is higher: 0.791 for the first, 0.593 for the second.

First: G28A G42T
Second: G28A G42A
The fraction ligated of the first is lower: 0.0941 for the first, 0.279 for the second.

Going from G28A G42C to A27C G34C, the fraction ligated falls from 0.0107 to 0.00877.

Going from A27C G34A to A27C G34T, the fraction ligated falls from 0.15 to 0.0114.

Compared with G28A A29C, G28A A29G is higher in fraction ligated: 0.83 for the first, 0.835 for the second.

Compared with G28A A29T, A29C A44C is lower in fraction ligated: 0.822 for the first, 0.607 for the second.

First: A29C A44G
Second: A29C A44T
The fraction ligated of the first is higher: 0.748 for the first, 0.705 for the second.

Going from C26T G33A to C26T G33T, the fraction ligated falls from 0.481 to 0.206.

First: C26T G33C
Second: A27T T36G
The fraction ligated of the first is higher: 0.325 for the first, 0.16 for the second.

Going from A27T T36C to A27T T36A, the fraction ligated rises from 0.0659 to 0.122.

Going from A27G T36A to A27G T36C, the fraction ligated falls from 0.0472 to 0.0221.

Going from A27G T36G to A27T A30C, the fraction ligated rises from 0.0614 to 0.822.

Going from A27T A30G to A27T A30T, the fraction ligated falls from 0.851 to 0.834.

Going from G28C G33A to G28C G33C, the fraction ligated falls from 0.772 to 0.641.

First: G28C G33T
Second: C26T A44T
The fraction ligated of the first is higher: 0.639 for the first, 0.246 for the second.

Compared with C26T A44G, C26T A44C is lower in fraction ligated: 0.142 for the first, 0.091 for the second.

First: C26T A35T
Second: C26T A35C
The fraction ligated of the first is lower: 0.0022 for the first, 0.00406 for the second.

First: C26T A35G
Second: G28T A43C
The fraction ligated of the first is lower: 0.0104 for the first, 0.117 for the second.

First: G28T A43G
Second: G28T A43T
The fraction ligated of the first is lower: 0.0967 for the first, 0.158 for the second.

First: G28C A35G
Second: G28C A35T
The fraction ligated of the first is higher: 0.0701 for the first, 0.0136 for the second.

First: G28C A35C
Second: A27C G37C
The fraction ligated of the first is higher: 0.0372 for the first, 0.004 for the second.

First: A27C G37A
Second: A27C G37T
The fraction ligated of the first is lower: 0.0106 for the first, 0.0224 for the second.

Compared with A29C, C26T T32A is lower in fraction ligated: 0.823 for the first, 0.00354 for the second.

Going from C26T T32G to C26T T32C, the fraction ligated falls from 0.00682 to 0.00511.

Going from G28C T32G to G28C T32C, the fraction ligated falls from 0.0241 to 0.0192.

Going from G28C T32A to A27G G33A, the fraction ligated rises from 0.0353 to 0.814.

Going from A27G G33T to A27G G33C, the fraction ligated falls from 0.807 to 0.35.

Going from A27G T32A to A27G T32G, the fraction ligated falls from 0.0468 to 0.0179.

Compared with A27G T32C, G28A is higher in fraction ligated: 0.0134 for the first, 0.809 for the second.

Compared with G28T, G28C is higher in fraction ligated: 0.806 for the first, 0.82 for the second.

Going from A27G A43G to A27G A43T, the fraction ligated rises from 0.105 to 0.169.

Going from A27G A43C to A27C G42T, the fraction ligated falls from 0.132 to 0.0494.

Compared with A27C G42C, A27C G42A is higher in fraction ligated: 0.0124 for the first, 0.171 for the second.

Going from C26T A43C to C26T A43T, the fraction ligated rises from 0.00569 to 0.0127.

First: C26T A43G
Second: A27T A31T
The fraction ligated of the first is lower: 0.0095 for the first, 0.802 for the second.

Compared with A27T A31C, A27T A31G is lower in fraction ligated: 0.844 for the first, 0.837 for the second.

Compared with G28T A30C, G28T A30T is higher in fraction ligated: 0.819 for the first, 0.832 for the second.

Going from G28T A30G to G28C A44G, the fraction ligated falls from 0.835 to 0.674.

First: G28C A44C
Second: G28C A44T
The fraction ligated of the first is lower: 0.596 for the first, 0.719 for the second.

Going from G28C A30G to G28C A30C, the fraction ligated rises from 0.816 to 0.817.

Going from G28C A30T to C26G G33A, the fraction ligated falls from 0.825 to 0.0636.

First: C26G G33C
Second: C26G G33T
The fraction ligated of the first is lower: 0.00704 for the first, 0.0124 for the second.

Going from C26G A31T to C26G A31G, the fraction ligated rises from 0.0387 to 0.0731.

Compared with C26G A31C, A27G G42A is higher in fraction ligated: 0.0238 for the first, 0.361 for the second.

Compared with A27G G42C, A27G G42T is higher in fraction ligated: 0.0187 for the first, 0.16 for the second.

Going from G28A A44T to G28A A44C, the fraction ligated falls from 0.773 to 0.667.

Going from G28A A44G to G28C A29T, the fraction ligated rises from 0.753 to 0.831.

First: G28C A29G
Second: G28C A29C
The fraction ligated of the first is higher: 0.812 for the first, 0.795 for the second.

Going from C26T G34T to C26T G34C, the fraction ligated falls from 0.0063 to 0.00303.

First: C26T G34A
Second: A27C A43T
The fraction ligated of the first is higher: 0.623 for the first, 0.0472 for the second.

First: A27C A43G
Second: A27C A43C
The fraction ligated of the first is lower: 0.0284 for the first, 0.0394 for the second.

Going from G28C A43T to G28C A43C, the fraction ligated falls from 0.0901 to 0.0652.

First: G28C A43G
Second: C26G G34A
The fraction ligated of the first is lower: 0.0597 for the first, 0.0747 for the second.

Going from C26G G34C to C26G G34T, the fraction ligated falls from 0.0293 to 0.00574.

First: G28T A29G
Second: G28T A29C
The fraction ligated of the first is higher: 0.832 for the first, 0.784 for the second.

Going from G28T A29T to C26T, the fraction ligated falls from 0.829 to 0.433.

Going from C26G to A27G A44C, the fraction ligated rises from 0.0466 to 0.69.

Compared with A27G A44G, A27G A44T is higher in fraction ligated: 0.746 for the first, 0.774 for the second.

First: A29C A30T
Second: A29C A30G
The fraction ligated of the first is lower: 0.81 for the first, 0.827 for the second.

Going from A29C A30C to C26G T32G, the fraction ligated falls from 0.563 to 0.00509.

First: C26G T32A
Second: C26G T32C
The fraction ligated of the first is higher: 0.00367 for the first, 0.00208 for the second.

Compared with G28C G34C, G28C G34T is lower in fraction ligated: 0.00831 for the first, 0.00677 for the second.

First: G28C G34A
Second: A27C G33C
The fraction ligated of the first is lower: 0.109 for the first, 0.817 for the second.

Compared with A27C G33A, A27C G33T is lower in fraction ligated: 0.835 for the first, 0.818 for the second.

Compared with G28T G34C, G28T G34T is lower in fraction ligated: 0.00596 for the first, 0.00519 for the second.

Compared with G28T G34A, A27C A35C is higher in fraction ligated: 0.141 for the first, 0.481 for the second.

Going from A27C A35G to A27C A35T, the fraction ligated rises from 0.112 to 0.176.

Compared with C26T A30T, C26T A30G is higher in fraction ligated: 0.339 for the first, 0.5 for the second.

Compared with C26T A30C, A27G A35T is lower in fraction ligated: 0.333 for the first, 0.0618 for the second.

A27G A35G showed a fraction ligated of 0.332.
